Experiments:
[1] = molecular target: MHC class I molecule H-2L^d on CT26 target cells (mouse) (UniProt P01897); test: cell-based or functional assay
[2] = molecular target: MHC class I molecule H-2K^d on CT26 target cells (mouse) (UniProt P01902); test: cell-based or functional assay
UniProt P01902, sequence (P01902 22-368): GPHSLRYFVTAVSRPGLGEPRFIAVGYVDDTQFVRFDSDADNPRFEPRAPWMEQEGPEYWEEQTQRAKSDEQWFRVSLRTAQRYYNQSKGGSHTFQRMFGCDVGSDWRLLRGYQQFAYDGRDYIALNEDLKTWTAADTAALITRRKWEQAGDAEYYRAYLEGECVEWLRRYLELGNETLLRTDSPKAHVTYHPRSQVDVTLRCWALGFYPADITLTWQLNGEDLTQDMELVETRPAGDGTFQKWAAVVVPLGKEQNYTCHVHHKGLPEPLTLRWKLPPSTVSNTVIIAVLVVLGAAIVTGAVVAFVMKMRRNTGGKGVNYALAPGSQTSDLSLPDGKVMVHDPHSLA

UniProt P01897, sequence (P01897 25-362): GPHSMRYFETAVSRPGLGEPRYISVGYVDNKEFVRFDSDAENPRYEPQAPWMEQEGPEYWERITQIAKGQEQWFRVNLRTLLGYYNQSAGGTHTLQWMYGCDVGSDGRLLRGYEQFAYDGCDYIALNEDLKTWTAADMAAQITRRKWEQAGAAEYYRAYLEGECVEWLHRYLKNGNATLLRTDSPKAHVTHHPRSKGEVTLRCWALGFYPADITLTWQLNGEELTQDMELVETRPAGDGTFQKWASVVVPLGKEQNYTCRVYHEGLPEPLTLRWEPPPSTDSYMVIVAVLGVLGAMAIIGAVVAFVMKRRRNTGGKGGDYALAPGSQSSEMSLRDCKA

Substance | CTL activity (CFSE-based cytotoxicity assay, CT26 target cells pre-incubated with blocking antibodies) (fraction of the control values) [1] | CTL activity (CFSE-based cytotoxicity assay, CT26 target cells pre-incubated with blocking antibodies) (fraction of the control values) [2]
anti-MHC class I monoclonal antibody H-2L^d: 28-14-8 (BioLegend) | 0.33 | 
anti-MHC class I monoclonal antibody H-2K^d: SF1-1.1.1 (eBioScience) |  | 0.33

Reference: patent publication US20160058856A1
